Data reported in article PMC10385363, “Enhancing the Catalytic Activity of Glycolate Oxidase from Chlamydomonas reinhardtii through Semi-Rational Design” (Microorganisms, 2023).

What was measured:
[1] = target: T1, GST-GSG-CreGO (glycolate oxidase CreGO) (Chlamydomonas reinhardtii, UniProt F8WQN2, Y27S/V111G, form not given); conditions: read-out: GST-GSG-CreGO-Y27S/V212R/V111G; 10 mM phenylhydrazine, 100 mM PBS pH 6.5, 40 °C; O2 as co-substrate; substrate range 0-100 mM; V111G is misprinted V11G in parts of the text
T1 construct: gene CHLRE_03g171300v5

purified protein = substrate: O=C(O)CO; assay: purified protein; conditions: 10 mM phenylhydrazine, 100 mM PBS pH 6.5, 40 °C, O2 as co-substrate, substrate range 0-100 mM

T1 sequence (F8WQN2 whole entry Y27S/V111G, form open): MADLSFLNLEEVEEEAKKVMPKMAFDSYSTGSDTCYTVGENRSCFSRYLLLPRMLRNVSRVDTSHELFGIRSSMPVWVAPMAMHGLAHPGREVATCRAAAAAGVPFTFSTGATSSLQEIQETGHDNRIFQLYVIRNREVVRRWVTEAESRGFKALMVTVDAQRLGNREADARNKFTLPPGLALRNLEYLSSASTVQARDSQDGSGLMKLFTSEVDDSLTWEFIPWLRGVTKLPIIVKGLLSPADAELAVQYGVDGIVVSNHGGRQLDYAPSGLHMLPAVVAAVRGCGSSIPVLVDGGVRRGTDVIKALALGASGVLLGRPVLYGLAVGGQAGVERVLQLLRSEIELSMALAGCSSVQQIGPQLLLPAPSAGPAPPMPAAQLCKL

Km [1] [µM] | Molecule | Km (purified protein) [µM] | Vmax (purified protein) [µmol/min/mg] | kcat (purified protein) [s⁻¹] | kcat/Km (purified protein) [M⁻¹ s⁻¹]
600 ± 40 | O=C(O)CO [sodium glycolate] | – | – | – | –
– | GST-GSG-CreGO (glycolate oxidase CreGO) (Chlamydomonas reinhardtii) (protein) MADLSFLNLEEVEEEAKKVMPKMAFDYYSTGSDTCYTVGENRSCFSRYLLLPRMLRNVSRVDTSHELFGIRSSMPVWVAPMAMHGLAHPGREVATCRAAAAAGVPFTFSTVATSSLQEIQETGHDNRIFQLYVIRNREVVRRWVTEAESRGFKALMVTVDAQRLGNREADARNKFTLPPGLALRNLEYLSSASTVQARDSQDGSGLMKLFTSEVDDSLTWEFIPWLRGVTKLPIIVKGLLSPADAELAVQYGVDGIVVSNHGGRQLDYAPSGLHMLPAVVAAVRGCGSSIPVLVDGGVRRGTDVIKALALGASGVLLGRPVLYGLAVGGQAGVERVLQLLRSEIELSMALAGCSSVQQIGPQLLLPAPSAGPAPPMPAAQLCKL | 1000 ± 50 | 7.2 | 4.9 | 4900
